Source: patent US20250339504A1 (published 2025)

Target: EPHB4 peptide on HLA-A*02:01 (human)
Experiment: activation reporter or marker

binding result: recognises
B1: Clone 4, 7, 34 (Table 10) (TCR, V domains shown)
Valpha: GEQVEQRPPHLSVREGDSAFIICTYTDSATAYFYWYKQEPGAGLQLLMSVFSNVDRKEEQGLTVLLNKKDKRLSLNLTAAHPGDSAVYFCAVGNSNNRIFFGDGTQLVVKP
Vbeta: NTKITQSPRYLILGRANKSLECEQHLGHNAMYWYKQSAEKPPELMFLYNLKQLIRNETVPSRFIPECPDSSKLLLHISAVDPEDSAVYFCASSQLGSSAETLYFGSGTRLTVL
